Assay in all cases: SEC
A general note: SEC sorts molecules by how far they enter the pores of the column.

The data set “SEC” concerns the molecule itself.
Another data set addresses T1, ACAD9-His6 R518H (human, UniProt Q9H845 38-621, R518H).
T1 sequence: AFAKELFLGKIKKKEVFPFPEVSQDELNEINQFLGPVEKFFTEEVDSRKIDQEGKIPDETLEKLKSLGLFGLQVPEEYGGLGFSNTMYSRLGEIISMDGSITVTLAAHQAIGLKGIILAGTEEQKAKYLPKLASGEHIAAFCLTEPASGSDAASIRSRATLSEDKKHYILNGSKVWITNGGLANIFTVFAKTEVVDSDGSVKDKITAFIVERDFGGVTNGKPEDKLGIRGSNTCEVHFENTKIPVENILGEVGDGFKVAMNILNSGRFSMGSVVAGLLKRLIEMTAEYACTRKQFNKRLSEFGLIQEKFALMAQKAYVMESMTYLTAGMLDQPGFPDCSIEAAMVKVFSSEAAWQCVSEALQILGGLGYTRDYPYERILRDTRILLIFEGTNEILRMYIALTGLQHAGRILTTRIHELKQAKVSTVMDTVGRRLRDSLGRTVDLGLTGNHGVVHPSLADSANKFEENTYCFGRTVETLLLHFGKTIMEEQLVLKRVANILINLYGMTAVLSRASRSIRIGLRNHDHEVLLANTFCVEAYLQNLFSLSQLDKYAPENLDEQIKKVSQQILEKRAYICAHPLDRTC

Another data set deals with T2, ACAD9-His6 R532W (human, UniProt Q9H845 38-621, R532W).
T2 sequence: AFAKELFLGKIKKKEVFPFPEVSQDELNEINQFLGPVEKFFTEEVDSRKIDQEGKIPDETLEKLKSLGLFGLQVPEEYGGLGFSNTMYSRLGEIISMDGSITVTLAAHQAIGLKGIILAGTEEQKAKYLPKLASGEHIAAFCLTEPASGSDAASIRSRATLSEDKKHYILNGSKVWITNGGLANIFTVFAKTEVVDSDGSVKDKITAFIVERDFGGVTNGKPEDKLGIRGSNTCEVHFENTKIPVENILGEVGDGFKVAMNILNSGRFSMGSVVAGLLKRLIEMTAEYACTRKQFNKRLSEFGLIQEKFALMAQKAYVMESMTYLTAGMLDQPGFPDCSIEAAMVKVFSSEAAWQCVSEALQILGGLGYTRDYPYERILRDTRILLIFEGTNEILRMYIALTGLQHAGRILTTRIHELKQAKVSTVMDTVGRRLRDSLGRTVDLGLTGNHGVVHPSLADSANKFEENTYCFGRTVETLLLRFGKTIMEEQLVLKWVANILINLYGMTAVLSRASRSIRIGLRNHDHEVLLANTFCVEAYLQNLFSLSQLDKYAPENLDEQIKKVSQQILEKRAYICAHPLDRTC

Another data set deals with T3, ACAD9-His6 E426Q (human, UniProt Q9H845 38-621, E426Q).
T3 sequence: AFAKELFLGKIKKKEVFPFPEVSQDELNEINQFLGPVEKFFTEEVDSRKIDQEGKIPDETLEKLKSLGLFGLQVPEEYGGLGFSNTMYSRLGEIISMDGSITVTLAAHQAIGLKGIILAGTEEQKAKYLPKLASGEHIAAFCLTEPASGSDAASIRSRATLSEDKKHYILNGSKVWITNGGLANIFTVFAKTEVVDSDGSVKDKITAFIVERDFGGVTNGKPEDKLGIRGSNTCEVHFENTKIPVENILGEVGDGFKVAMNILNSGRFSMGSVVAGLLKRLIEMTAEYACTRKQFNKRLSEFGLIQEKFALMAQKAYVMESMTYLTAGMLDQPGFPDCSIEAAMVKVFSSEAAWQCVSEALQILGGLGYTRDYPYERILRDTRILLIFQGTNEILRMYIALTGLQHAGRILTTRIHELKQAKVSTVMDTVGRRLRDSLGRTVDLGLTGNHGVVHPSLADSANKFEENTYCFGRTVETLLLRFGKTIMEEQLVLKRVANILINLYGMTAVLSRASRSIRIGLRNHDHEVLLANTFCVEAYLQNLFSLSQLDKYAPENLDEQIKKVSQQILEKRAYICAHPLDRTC

B1: His6-ECSIT (mature human mitochondrial ECSIT with N-terminal His tag) (natural protein)
chain: SSEQSLVPSPPEPRQRPTKALVPFEDLFGQAPGGERDKASFLQTVQKFAEHSVRKRGHIDFIYLALRKMREYGVERDLAVYNQLLNIFPKEVFRPRNIIQRIFVHYPRQQECGIAVLEQMENHGVMPNKETEFLLIQIFGRKSYPMLKLVRLKLWFPRFMNVNPFPVPRDLPQDPVELAMFGLRHMEPDLSARVTIYQVPLPKDSTGAADPPQPHIVGIQSPDQQAALARHNPARPVFVEGPFSLWLRNKCVYYHILRADLLPPEEREVEETPEEWNLYYPMQLDLEYVRSGWDNYEFDINEVEEGPVFAMCMAGAHDQATMAKWIQGLQETNPTLAQIPVVFRLAGSTRELQTSSAGLEEPPLPEDHQEEDDNLQRQQQGQS
Broadly, the stoichiometry N is the number of molecules, sites or subunits per partner or assembly. Take B1: the “stoichiometry N” value in the data set “SEC” stood at 2. In addition, the binding result with ACAD9-His6 R518H, in the data set with ACAD9-His6 R532W and with ACAD9-His6 E426Q was “binds” in each case.

Source of the values: article PMC8497999 (iScience, 2021).
